Legend:
Assay in all cases: SEC
[1] = target: Piper methysticum styrylpyrone synthase 2 (PmSPS2) (kava (Piper methysticum))
[2] = target: Piper methysticum kavalactone reductase 1 (PmKLR1) (kava (Piper methysticum))
[3] = target: Piper methysticum chalcone synthase (PmCHS) (kava (Piper methysticum))
[4] = target: Piper methysticum styrylpyrone synthase 1 (PmSPS1) (kava (Piper methysticum))

Piper methysticum styrylpyrone synthase 2 (PmSPS2) (enzyme)
stoichiometry N [1]: 2

Piper methysticum kavalactone reductase 1 (PmKLR1) (enzyme)
stoichiometry N [2]: 2

Piper methysticum chalcone synthase (PmCHS) (enzyme)
stoichiometry N [3]: 2

Piper methysticum styrylpyrone synthase 1 (PmSPS1) (enzyme)
stoichiometry N [4]: 2
